Data taken from patent publication US11130803B2, “Isoform-selective TGFβ1 inhibitors and use thereof” (Scholar Rock, Inc., priority 2018, dated 2021).
Where two headings read alike, the source gives them in different places.

How the values were obtained:
[1] = molecular target: T1, recombinant human GARP-proTGFβ1 complex (Homo sapiens, UniProt P01137); assay: Octet (Biolayer Interferometry) in vitro kinetic binding; settings: in M
T1 construct: made in house
From the text: (§1) Biolayer Interferometry (BLI):BLI is a label-free technology for optically measuring biomolecular interactions, e.g., between a ligand immobilized on the biosensor tip surface and an analyte in solution. BLI provides the ability to monitor binding specificity, rates of association and dissociation, or concentration, with precision and accuracy. BLI platform instruments are commercially available, for example, from ForteBio and are commonly referred to as the Octet® System.
(§2) BLI-based binding assays are widely used in the art for measuring affinities and kinetics of antibodies to antigens. It is a label-free technology in which biomolecular interactions are analyzed on the basis of optical interference. One of the proteins, for example, an antibody being tested, can be immobilized on the biosensor tip. When the other protein in solution, for example, an antigen, becomes bound to the immobilized antibody, it causes a shift in the interference pattern, which can be measured in real-time. This allows the monitoring of binding specificity, rates of association and dissociation, as well as concentration dependency. […] Due to its ease of use and fast results, BLI-based assays such as the Octet® system (available from ForteBio/Molecular Devices, Fremont Calif.), are particularly convenient when used as an initial screening method to identify and separate a pool of “binders” from a pool of “non-binders” or “weak binders” in the screening process.
(§3) Table 8 below provides non-limiting examples of high-affinity, context-independent proTGFβ1 antibodies encompassed by the present invention. The table provides representative results from in vitro binding assays, as measured by Octet®.
(§4) Column (A) of the table lists monoclonal antibodies with discrete amino acid sequences. […] Columns (B), (D), (E) and (F) provide affinities of each of the listed antibodies, measured in KD. […] Average KD values of (B) and (C) are shown in the corresponding column (D), which collectively represents affinities of the antibodies to ECM- or matrix-associated proTGFβ1 complexes. Similarly, Average KD values of (E) and (F) are shown in the corresponding column (G), which collectively represents affinities of the antibodies to cell-surface or cell-associated proTGFβ1 complexes. Finally, relative ratios between the average KD values from columns (D) and (G) are expressed as “fold bias” in column (H). Thus, the greater the number of column (H) is, the greater bias exists for the particular antibody, when comparing binding preferences of the antibody for matrix-associated complexes and cell-surface complexes. This is one way of quantitatively representing and comparing inherent bias of antibodies to their target complexes. Such analyses may be useful in guiding the selection process for a candidate antibody for particular therapeutic use.
(§5) In some embodiments, the binding affinity of an antibody, or antigen binding portion thereof, to an antigen (e.g., protein complex), such as presenting molecule-proTGFβ1 complexes, is determined using an Octet assay. In some embodiments, an Octet assay is an assay that determines one or more a kinetic parameters indicative of binding between an antibody and antigen. In some embodiments, an Octet® system (ForteBio, Menlo Park, Calif.) is used to determine the binding affinity of an antibody, or antigen binding portion thereof, to presenting molecule-proTGFβ1 complexes. For example, binding affinities of antibodies may be determined using the fortéBio Octet QKe dip and read label free assay system utilizing bio-layer interferometry. In some embodiments, antigens are immobilized to biosensors (e.g., streptavidin-coated biosensors) and the antibodies and complexes (e.g., biotinylated presenting molecule-proTGFβ1 complexes) are presented in solution at high concentration ([…]) to measure binding interactions. […]

[2] = molecular target: T2, recombinant human LRRC33-proTGFβ1 complex (Homo sapiens, UniProt P01137); assay: as above; settings: in M
T2 construct: made in house
T2 sequence (P01137 30-390): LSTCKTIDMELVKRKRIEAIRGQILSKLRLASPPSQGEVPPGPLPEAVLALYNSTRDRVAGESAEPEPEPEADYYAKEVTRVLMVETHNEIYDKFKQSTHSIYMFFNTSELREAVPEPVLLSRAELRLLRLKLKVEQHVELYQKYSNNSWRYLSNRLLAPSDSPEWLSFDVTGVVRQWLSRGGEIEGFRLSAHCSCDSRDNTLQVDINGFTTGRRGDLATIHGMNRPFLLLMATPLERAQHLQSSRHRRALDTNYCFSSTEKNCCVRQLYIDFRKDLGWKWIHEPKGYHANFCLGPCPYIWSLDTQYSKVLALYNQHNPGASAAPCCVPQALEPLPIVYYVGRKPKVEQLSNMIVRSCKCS
T2 sequence (Q86YC3 19-650 partner limits assumed): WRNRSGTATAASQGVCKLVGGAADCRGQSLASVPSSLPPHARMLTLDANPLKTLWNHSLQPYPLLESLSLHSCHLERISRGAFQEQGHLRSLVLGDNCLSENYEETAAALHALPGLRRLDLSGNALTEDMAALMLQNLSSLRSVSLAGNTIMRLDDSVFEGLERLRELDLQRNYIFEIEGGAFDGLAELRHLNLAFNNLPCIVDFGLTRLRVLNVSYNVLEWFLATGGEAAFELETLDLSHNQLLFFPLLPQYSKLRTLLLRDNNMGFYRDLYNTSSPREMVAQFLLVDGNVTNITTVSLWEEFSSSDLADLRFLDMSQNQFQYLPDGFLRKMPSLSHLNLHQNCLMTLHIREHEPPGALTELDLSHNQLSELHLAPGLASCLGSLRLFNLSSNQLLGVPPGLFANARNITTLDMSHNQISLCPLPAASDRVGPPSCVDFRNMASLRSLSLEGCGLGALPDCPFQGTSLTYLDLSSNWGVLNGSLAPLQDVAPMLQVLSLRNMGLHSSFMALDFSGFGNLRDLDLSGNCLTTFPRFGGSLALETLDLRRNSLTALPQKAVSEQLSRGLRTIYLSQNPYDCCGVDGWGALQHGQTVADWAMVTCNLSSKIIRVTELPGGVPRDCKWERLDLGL
From the text: as §1, §2, §3, §4, §5

[3] = molecular target: T3, recombinant human LTBP1-proTGFβ1 complex (Homo sapiens, UniProt P01137); assay: as above; settings: in M
T3 construct: made in house; host or cells: Expi293F cells, transient co-transfection
T3 sequence (P01137 30-390): as the sequence (P01137 30-390) above
T3 sequence (Q14766 873-1507 partner): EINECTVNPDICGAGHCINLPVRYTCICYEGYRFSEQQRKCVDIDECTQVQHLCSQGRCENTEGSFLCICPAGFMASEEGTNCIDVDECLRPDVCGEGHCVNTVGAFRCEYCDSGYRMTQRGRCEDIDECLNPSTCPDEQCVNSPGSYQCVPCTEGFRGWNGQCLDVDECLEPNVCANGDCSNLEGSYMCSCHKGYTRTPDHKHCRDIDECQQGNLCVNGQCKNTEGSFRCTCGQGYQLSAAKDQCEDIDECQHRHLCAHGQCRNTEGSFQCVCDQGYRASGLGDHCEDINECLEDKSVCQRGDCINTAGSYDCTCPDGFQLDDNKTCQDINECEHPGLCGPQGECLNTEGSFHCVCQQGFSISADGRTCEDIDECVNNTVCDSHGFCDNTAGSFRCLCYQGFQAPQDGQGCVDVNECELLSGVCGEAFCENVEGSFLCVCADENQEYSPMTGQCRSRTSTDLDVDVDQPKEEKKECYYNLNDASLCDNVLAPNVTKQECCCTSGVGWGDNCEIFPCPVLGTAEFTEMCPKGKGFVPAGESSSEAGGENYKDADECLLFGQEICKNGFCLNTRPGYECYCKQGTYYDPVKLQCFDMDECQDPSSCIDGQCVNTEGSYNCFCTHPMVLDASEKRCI
From the text: as §1, §2, §3, §4, §5

[4] = molecular target: T4, recombinant human LTBP3-proTGFβ1 complex (Homo sapiens, UniProt P01137); assay: as above; settings: in M
T4 construct: made in house; host or cells: Expi293F cells, transient co-transfection
T4 sequence (P01137 30-390): as the sequence (P01137 30-390) above
T4 sequence (Q9NS15 866-1039 partner limits assumed): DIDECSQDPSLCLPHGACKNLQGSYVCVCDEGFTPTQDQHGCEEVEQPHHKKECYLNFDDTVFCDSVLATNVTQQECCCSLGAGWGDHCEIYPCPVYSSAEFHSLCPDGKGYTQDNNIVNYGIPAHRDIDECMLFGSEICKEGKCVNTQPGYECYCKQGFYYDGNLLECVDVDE
From the text: as §1, §2, §3, §4, §5

[5] = test system: matrix-associated (LTBP1/LTBP3) and cell-associated (GARP/LRRC33) proTGFβ1 complexes; assay: Octet: average KD and fold bias, matrix- vs cell-associated complexes; type: binding, human; settings: for Kd: average KD of (E) and (F), cell-associated complexes, read-out: (G) Cell AVRG; for (H) G/D (fold bias): ratio of average KD cell-associated / matrix-associated
From the text: Column (A) of the table lists monoclonal antibodies with discrete amino acid sequences. […] Columns (B), (D), (E) and (F) provide affinities of each of the listed antibodies, measured in KD. […] Average KD values of (B) and (C) are shown in the corresponding column (D), which collectively represents affinities of the antibodies to ECM- or matrix-associated proTGFβ1 complexes. Similarly, Average KD values of (E) and (F) are shown in the corresponding column (G), which collectively represents affinities of the antibodies to cell-surface or cell-associated proTGFβ1 complexes. Finally, relative ratios between the average KD values from columns (D) and (G) are expressed as “fold bias” in column (H). […] This is one way of quantitatively representing and comparing inherent bias of antibodies to their target complexes.
Average KD values between the two matrix-associated and cell-associated complexes are calculated, respectively (see columns (D) and (G)). These average KD values can then be used to ask whether bias in binding activities exists between complexes associated with matrix vs. complexes associated with cell surface (e.g., immune cells). Bias may be expressed as “fold-difference” in the average KD values, as illustrated in Table 8.

[6] = test system: matrix-associated (LTBP1/LTBP3) and cell-associated (GARP/LRRC33) proTGFβ1 complexes; assay: as above; type: binding, human; settings: average KD of (B) and (C), read-out: (D) ECM AVRG

T1 sequence (P01137 30-390): as the sequence (P01137 30-390) above
T1 sequence (Q14392 20-627 partner limits assumed): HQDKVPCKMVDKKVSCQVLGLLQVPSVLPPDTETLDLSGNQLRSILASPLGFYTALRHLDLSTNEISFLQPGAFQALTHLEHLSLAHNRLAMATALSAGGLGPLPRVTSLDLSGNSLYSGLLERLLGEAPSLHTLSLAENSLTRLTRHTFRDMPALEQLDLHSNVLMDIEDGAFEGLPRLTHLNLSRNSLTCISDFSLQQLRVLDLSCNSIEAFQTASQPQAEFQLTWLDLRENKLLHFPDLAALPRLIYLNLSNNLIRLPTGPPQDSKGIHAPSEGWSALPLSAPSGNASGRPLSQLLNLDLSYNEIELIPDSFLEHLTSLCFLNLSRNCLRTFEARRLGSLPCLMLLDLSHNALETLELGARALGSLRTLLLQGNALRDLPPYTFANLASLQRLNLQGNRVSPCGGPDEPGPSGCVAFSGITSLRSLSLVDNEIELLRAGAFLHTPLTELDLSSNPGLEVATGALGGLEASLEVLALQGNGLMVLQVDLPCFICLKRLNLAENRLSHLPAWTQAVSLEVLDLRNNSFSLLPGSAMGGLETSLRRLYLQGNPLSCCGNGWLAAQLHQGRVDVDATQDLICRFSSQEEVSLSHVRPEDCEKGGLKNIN

Molecule | (E) hGARP, Cell-associated proTGFb1 (KD) [1] | (F) hLRRC33, Cell-associated proTGFb1 (KD) [2] | (B) hLTBP1, Matrix-associated proTGFb1 (KD) [3] | (C) hLTBP3, Matrix-associated proTGFb1 (KD) [4] | Kd [5] [nM] | (H) G/D (fold bias) [5] [fold] | Kd [6] [nM]
Ab21: monoclonal antibody; VH SEQ ID NO: 129, VL SEQ ID NO: 15 (antibody, V domains shown) VH: EVQLVESGGGLVQPGGSLRLSCAASGFTFSSFSMDWVRQAPGKGLEWVSYISPDASTIYYADSVKGRFTISRDNAKNSLYLQMNSLRAEDTAVYYCARGVLDYGDMLDPWGQGTLVTVSS VL: DIQMTQSPSSLSASVGDRVTITCQASQDITNYLNWYQQKPGKAPKLLIYDASNLETGVPSRFSGSGSGTDFTFTISSLQPEDIATYYCQQADNHPPWTFGGGTKVEIK | 8.33E−10 | 4.55E−10 | 2.25E−10 | 2.68E−10 | 0.644 | 2.613 | 0.246
Ab25: monoclonal antibody; VH SEQ ID NO: 133, VL SEQ ID NO: 15 (antibody, V domains shown) VH: EVQLVESGGGLVQPGGSLRLSCAASGFTFGSFSMDWVRQAPGKGLEWVSYISPDASTIYYADSVKGRFTISRDNAKNSLYLQMNSLRAEDTAVYYCARGVLDYGDMLDPWGQGTLVTVSS VL: DIQMTQSPSSLSASVGDRVTITCQASQDITNYLNWYQQKPGKAPKLLIYDASNLETGVPSRFSGSGSGTDFTFTISSLQPEDIATYYCQQADNHPPWTFGGGTKVEIK | 4.88E−10 | 4.09E−10 | 2.17E−10 | 1.52E−10 | 0.449 | 2.431 | 0.184
Ab23: monoclonal antibody; VH SEQ ID NO: 131, VL SEQ ID NO: 15 (antibody, V domains shown) VH: EVQLVESGGGLVQPGGSLRLSCAASGFTFSSFSMNWVRQAPGKGLEWVSYISPSADTIYYADSVKGRFTISRDNAKNTLYLQMNSLRAEDTAVYYCARGVLDYGDMLDPWGQGTLVTVSS VL: DIQMTQSPSSLSASVGDRVTITCQASQDITNYLNWYQQKPGKAPKLLIYDASNLETGVPSRFSGSGSGTDFTFTISSLQPEDIATYYCQQADNHPPWTFGGGTKVEIK | 1.34E−09 | 4.55E−10 | 4.17E−10 | 4.68E−10 | 0.897 | 2.028 | 0.443
Ab27: monoclonal antibody; VH SEQ ID NO: 135, VL SEQ ID NO: 15 (antibody, V domains shown) VH: EVQLVESGGGLVQPGGSLRLSCAASGFTFSFYAMNWVRQAPGKGLEWVSYISPDASTIYYADSVKGRFTISRDNAKNSLYLQMNSLRAEDTAVYYCARGVLDYGDMLDPWGQGTLVTVSS VL: DIQMTQSPSSLSASVGDRVTITCQASQDITNYLNWYQQKPGKAPKLLIYDASNLETGVPSRFSGSGSGTDFTFTISSLQPEDIATYYCQQADNHPPWTFGGGTKVEIK | 4.24E−10 | 2.99E−10 | 1.78E−10 | 2.38E−10 | 0.361 | 1.738 | 0.208
Ab28: monoclonal antibody; VH SEQ ID NO: 136, VL SEQ ID NO: 15 (antibody, V domains shown) VH: EVQLVESGGGLVQPGGSLRLSCAASGFTFSSFSMDWVRQAPGKGLEWVSYISPDASTIYYADSVKGRFTISRDNAKNSLYLQMNSLRAEDTAVYYCVRGVLDYGDMLDPWGQGTLVTVSS VL: DIQMTQSPSSLSASVGDRVTITCQASQDITNYLNWYQQKPGKAPKLLIYDASNLETGVPSRFSGSGSGTDFTFTISSLQPEDIATYYCQQADNHPPWTFGGGTKVEIK | 7.97E−10 | 4.09E−10 | 3.40E−10 | 3.16E−10 | 0.603 | 1.838 | 0.328
Ab13: monoclonal antibody; VH SEQ ID NO: 242, VL SEQ ID NO: 243 (antibody, V domains shown) VH: EVQLLESGGGLVQPGGSLRLSCAASGFTFADYAMTWVRQAPGKGLEWVSAISSFASAIYYADSVKGRFTISRDNSKNTLYLQMNSLRAEDTAVYYCARVSSGHWDFDYWGQGTLVTVSS VL: DIQMTQSPSSLSASVGDRVTITCRASQSISSYLNWYQQKPGKAPKLLIYAASSLQSGVPSRFSGSGSGTDFTLTISSLQPEDFATYYCQQVYDPPLTFGGGTKVEIK | 1.00E−08 | 1.40E−09 | 2.76E−10 | 2.49E−10 | 5.7 | 21.71 | 0.263
Ab15: monoclonal antibody; VH SEQ ID NO: 245, VL SEQ ID NO: 241 (antibody, V domains shown) VH: EVQLVESGGGVVQPGRSLRLSCAASGFTFSDYAMVWVRQAPGKGLEWVSAISGSGFTTYYADSVKGRFTISRDNSKNTLYLQMNSLRAEDTAVYYCARVSSGHWDFDYWGQGTLVTVSS VL: DIQLTQSPSSLSASVGDRVTITCRASQSISSYLNWYQQKPGKAPKLLIYAASNLQSGVPSRFSGSGSGTDFTLTISSLQPEDFATYYCQQTYTVPLTFGGGTKVEIK | 7.01E−09 | 7.02E−10 | 1.50E−10 | 1.68E−10 | 3.86 | 24.25 | 0.159
Ab14: monoclonal antibody; VH SEQ ID NO: 244, VL SEQ ID NO: 243 (antibody, V domains shown) VH: EVQLLESGGGLVQPGGSLRLSCAASGFTFSAYAMTWVRQAPGKGLEWVSAISGTGGSTYYADSVKGRFTISRDNSKNTLYLQMNSLRAEDTAVYYCARVSSGHWDFDYWGQGTLVTVSS VL: DIQMTQSPSSLSASVGDRVTITCRASQSISSYLNWYQQKPGKAPKLLIYAASSLQSGVPSRFSGSGSGTDFTLTISSLQPEDFATYYCQQVYDPPLTFGGGTKVEIK | 1.05E−08 | 1.34E−09 | 3.36E−10 | 3.46E−10 | 5.92 | 17.36 | 0.341
